Experimental data as given in PMC5526978.

Molecular target: GCSF-Fc (human granulocyte colony-stimulating factor fused with the IgG1 Fc domain at the C-terminus) (UniProt P09919)
Assay: non-reducing SDS-PAGE; purified GCSF-Fc run under reducing and non-reducing conditions, 10% SDS-PAGE

GCSF-Fc (human granulocyte colony-stimulating factor fused with the IgG1 Fc domain at the C-terminus) (from UniProt P09919-2 31-204) (Fc fusion)
stoichiometry N: 2
